Ends that are not written are not given here. * marks the point of attachment. FITC = O=C1OC2(c3ccc(O)cc3Oc3cc(O)ccc32)c2ccc(NC(=S)*)cc21

B1: PKI^NES-Flip3 peptide used for crystallization (peptide)
peptide: GGSYRSFDMNELALKLAGLD
notes: PKI NES helix with the ΦXΦ motif moved to the N-terminus and made larger (FDM), after GGSY left from TEV cleavage; also called PKI-Flip3; source: E. coli BL-21(DE3), MBP fusion purified (amylose, ion exchange), cleaved with TEV, peptide isolated by gel filtration; not shown: MBP, N-terminal, cleaved
B2: CPEB4^NES-R peptide used for crystallization (peptide)
peptide: GGSYRMIDILSSELSHMDFTR
notes: also called CPEB4-R; source: E. coli BL-21(DE3), MBP fusion purified (amylose, ion exchange), cleaved with TEV, peptide isolated by gel filtration; not shown: MBP, N-terminal, cleaved
B3: hRio2^NES peptide used for crystallization (GGSY-389RSFEMTEFNQALEEI403) (peptide)
peptide: GGSYRSFEMTEFNQALEEI
modifications: not fully specified (residue 9); printed as GGSY^389^RSFEMTEFNQALEEI^403^
notes: residues before the NES that are left after TEV cleavage; NES of human Rio2 (hRio2), residues 389-403; The text speaks of a native and of a selenomethionine peptide; Residues 391-403 modelled; also called Selenomethione-hRio2; source: E. coli BL-21(DE3), MBP fusion purified (amylose, ion exchange), cleaved with TEV, peptide isolated by gel filtration; not shown: MBP, N-terminal, cleaved
B4: hRio2^NES-R peptide used for crystallization (peptide)
peptide: GGSYGKIEELAQNFETMEFSR
modifications: not fully specified (residue 17)
notes: also called Selenomethione-hRio2-R; source: E. coli BL-21(DE3), MBP fusion purified (amylose, ion exchange), cleaved with TEV, peptide isolated by gel filtration; not shown: MBP, N-terminal, cleaved
B5: CPEB4^NES peptide used for crystallization (GGSY-379RTFDMHSLESSLIDI393) (peptide)
peptide: GGSYRTFDMHSLESSLIDI
notes: residues before the NES that are left after TEV cleavage; NES of CPEB4, residues 379-393; source: E. coli BL-21(DE3), MBP fusion purified (amylose, ion exchange), cleaved with TEV, peptide isolated by gel filtration; not shown: MBP, N-terminal, cleaved
B6: FITC-PKI^NES peptide (FITC-SGNSNELALKLAGLDINKT) (peptide)
peptide: {FITC}-SGNSNELALKLAGLDINKT
notes: also called fluorescent-labeled PKI^NES peptide; source: synthetic peptide (GenScript)

Sequence of Full-length human CRM1 (HsCRM1) (O14980 whole entry): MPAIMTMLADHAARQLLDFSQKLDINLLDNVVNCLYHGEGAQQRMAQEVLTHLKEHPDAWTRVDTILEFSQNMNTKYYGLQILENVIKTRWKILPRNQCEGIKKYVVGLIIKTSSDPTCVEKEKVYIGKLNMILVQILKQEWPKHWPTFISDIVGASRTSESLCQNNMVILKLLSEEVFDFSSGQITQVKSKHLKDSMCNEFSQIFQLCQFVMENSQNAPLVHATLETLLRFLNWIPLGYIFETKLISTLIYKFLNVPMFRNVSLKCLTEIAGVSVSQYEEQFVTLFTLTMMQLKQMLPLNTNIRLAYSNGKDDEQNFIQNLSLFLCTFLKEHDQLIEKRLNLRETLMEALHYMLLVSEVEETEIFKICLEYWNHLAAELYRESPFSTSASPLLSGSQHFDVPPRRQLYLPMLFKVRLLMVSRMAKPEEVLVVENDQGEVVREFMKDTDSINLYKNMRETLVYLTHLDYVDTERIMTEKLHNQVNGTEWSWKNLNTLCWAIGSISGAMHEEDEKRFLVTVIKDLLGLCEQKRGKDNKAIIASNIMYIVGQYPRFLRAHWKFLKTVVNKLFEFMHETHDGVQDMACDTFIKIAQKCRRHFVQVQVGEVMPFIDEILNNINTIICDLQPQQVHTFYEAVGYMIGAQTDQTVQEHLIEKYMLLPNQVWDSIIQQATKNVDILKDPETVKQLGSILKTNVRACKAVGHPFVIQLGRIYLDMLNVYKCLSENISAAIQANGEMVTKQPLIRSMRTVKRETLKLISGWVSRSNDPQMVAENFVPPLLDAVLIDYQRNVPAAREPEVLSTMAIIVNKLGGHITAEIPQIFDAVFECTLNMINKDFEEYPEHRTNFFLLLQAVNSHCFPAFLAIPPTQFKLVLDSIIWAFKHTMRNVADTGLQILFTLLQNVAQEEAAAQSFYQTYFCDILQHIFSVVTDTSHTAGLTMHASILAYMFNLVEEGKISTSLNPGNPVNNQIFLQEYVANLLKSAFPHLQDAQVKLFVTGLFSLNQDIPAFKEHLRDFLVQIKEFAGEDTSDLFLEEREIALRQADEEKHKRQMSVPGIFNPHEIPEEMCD

The first assay addresses CRM1* (ScCRM1 residues 1-1058, Δ377-413, V441D, 537DLTVK541 to GLCEQ) (Saccharomyces cerevisiae, UniProt P30822 1-1058, Δ377–413 | V441D | 537DLTVK541 to GLCEQ). The assay can be described thus: crystal structure; quaternary CRM1*-RanGppNHp-RanBP1 (Yrb1p)-NES peptide complexes, assembled 1:3:10 and purified by gel filtration in GF buffer; crystals in 17% PEG3350, 100 mM Bis-Tris pH 6.4, 200 mM ammonium nitrate, 10 mM spermine HCl. The settings on record: both partners purified.
Turning to B1, the binding result is recorded as “binds”.
The same measure, in the same setting: the result for B2 reads “binds”.
On the same count and under the same terms, the result for B3 reads “binds”; that for B4, “binds”.
As to B5, the binding result is listed as “binds”.

Another assay concerns the target Full-length human CRM1 (HsCRM1) (human, UniProt O14980 1-1071). Briefly: differential bleaching monitored with a microscale thermophoresis instrument (direct titration); HsCRM1 serially diluted from 40 μM to 1.2 nM, mixed 1:1 with 120 μM ScRan-GTP and 40 nM FITC-PKI^NES; TB buffer with 15% glycerol, 0.05% Tween-20; 1 hr, room temperature. The settings on record: both partners purified.
With B6, the binding result is “binds”.

(Values after publication PMC4596688, “Structural determinants of nuclear export signal orientation in binding to exportin CRM1” (eLife, 2015).)
